Results reported in patent publication US20240376207A1 (JIANGSU HENGRUI PHARMACEUTICALS, published 2024).
One block for each binder: values may come before it.

Tests used:
[1] = target: T1, human IgG1 Fc-tagged mouse PVRIG (m-PVRIG-hIgG1 Fc) (mouse, UniProt A0A1B0GS01 35-165); experiment: ELISA, coated antigen
T1 construct: bought from Acrobiosystems; also called Mouse PVRIG-Fc; mouse PVRIG recombinant protein; not shown: human IgG1 Fc tag of the Acrobiosystems product, and any linker to it
T1 sequence: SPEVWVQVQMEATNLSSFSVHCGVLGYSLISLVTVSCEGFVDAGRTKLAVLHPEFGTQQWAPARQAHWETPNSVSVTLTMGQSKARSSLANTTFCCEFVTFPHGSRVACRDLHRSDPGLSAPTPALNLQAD
Experimental: (§1) ELISA assay was used to detect binding properties of anti-PVRIG antibodies. […] After the antibody was added, the activity of the binding of the antibody to the antigen was detected by adding a secondary antibody (HRP-conjugated anti-primary antibody Fc antibody) and HRP substrate TMIB.
(§2) A human, cynomolgus monkey, or mouse PVRIG protein (at a concentration of 1 μg/mL) was coated on a 96-well microplate at 100 μL per well, and incubated overnight at 4° C. The plate was washed three times with wash buffer at 250 μL per well. For each wash, the plate was shaken for 10 s to ensure adequate cleaning. A blocking solution (PBS+0.05% Tween20+1% BSA) was added at 300 μL/well, and the plate was incubated at room temperature for 1 h. The plate was washed three times with wash buffer at 250 μL per well. For each wash, the plate was shaken for 10 s to ensure adequate cleaning. Dilutions of the test anti-PVRIG antibodies were added at 100 μL/well. The plate was incubated at 37° C. for 1 h. The plate was washed three times with wash buffer at 250 μL per well. The […] anti-human IgG secondary antibody (Sigma, A8667) was added at 100 μL per well. The plate was incubated at 37° C. for 1 h. The plate was washed three times with wash buffer at 250 μL per well. TMB was added at 100 μL/well, and the plate was incubated in the dark for 15 min. 0.16 M sulfuric acid was added at 50 μL/well. The OD values at 450 nm were read by using a Thermo MultiSkanFc microplate reader, and the EC₅₀ values of the binding of the anti-PVRIG antibodies to PVRIG were calculated.

[2] = target: T2, his-tagged cynomolgus monkey PVRIG (cyno-PVRIG-his) recombinant protein (cynomolgus monkey); experiment: ELISA, coated antigen
T2 construct: expressed in HEK293, purified by Ni-NTA; also called Monkey PVRIG-his; cynomolgus monkey PVRIG recombinant protein
T2 chain: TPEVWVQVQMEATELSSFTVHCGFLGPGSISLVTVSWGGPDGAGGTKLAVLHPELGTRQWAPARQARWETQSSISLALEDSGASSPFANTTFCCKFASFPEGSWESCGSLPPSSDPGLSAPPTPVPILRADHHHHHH
Experimental: as §1, §2

[3] = target: T3, human TIGIT recombinant protein (human, UniProt Q495A1 22-141, limits assumed); experiment: ELISA, coated antigen
T3 construct: construct not described; also called human TIGT recombinant protein
T3 sequence (looked up): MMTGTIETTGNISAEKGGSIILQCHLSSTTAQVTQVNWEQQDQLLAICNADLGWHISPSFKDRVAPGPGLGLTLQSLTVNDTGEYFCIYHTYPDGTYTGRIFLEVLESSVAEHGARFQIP
Experimental: as §2
(§3) The experiments were carried out according to the methods of Example 4, Example 5 and Example 6 (corresponding receptors and ligands were replaced with human TIGIT and human PVR), and the results are shown in Table 27.

[4] = target: T4, human TIGIT expressed on cells (human, UniProt Q495A1 22-244); experiment: FACS, cells overexpressing target
T4 construct: whole, on cells; also called cells overexpressing human TIGIT
T4 sequence (looked up): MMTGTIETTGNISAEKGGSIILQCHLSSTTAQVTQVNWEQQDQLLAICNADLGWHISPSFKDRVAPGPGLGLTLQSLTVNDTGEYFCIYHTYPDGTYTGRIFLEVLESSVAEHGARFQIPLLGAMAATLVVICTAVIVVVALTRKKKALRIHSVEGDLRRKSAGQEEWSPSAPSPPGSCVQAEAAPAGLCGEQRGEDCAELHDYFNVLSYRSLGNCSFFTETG
Experimental: (§4) The expression plasmid carrying human or cynomolgus monkey PVRIG gene sequence was transfected into HEK293 cells, and the over-expressing stable transfection monoclonal cell strain was obtained by antibiotic screening and infinite dilution. Overexpressing cells were seeded into a 96-well plate at 2×10⁵ cells/per well. The cells were centrifuged at 300 g for 5 min, the supernatant was then removed, 100 μL of the test antibody was added, and the mixture was incubated at 4° C. for 1 h. The mixture was centrifuged, the supernatant was removed, the plate was washed 3 times with 200 μL of wash buffer (PBS+2% FBS), and then 100 μL of an anti-human IgG secondary antibody (Invitrogen, A-11013) labeled with Alexa Fluor 488 diluted at 1:500 was added. The mixture was incubated at 4° C. for 1 h. The plate was centrifuged, and the supernatant was removed. The plate was washed 3 times with 200 μL of wash buffer (PBS+2% FBS). The cells were resuspended in 100 μL of PBS and tested on a flow cytometer (BD FACS Calibur or BD FACS Canto_II).
as §3

[5] = target: T3, human TIGIT recombinant protein; experiment: competition ELISA; human TIGIT, competitor human PVR
Experimental: The h-PVRIG-mIgG2a Fc protein (at a concentration of 1 μg/mL) was coated on the 96-well microplate at 100 μL per well, and incubated overnight at 4° C. The plate was washed three times with wash buffer at 250 μL per well. For each wash, the plate was shaken for 10 s to ensure adequate cleaning. A blocking solution was added at 300 μL/well, and the plate was incubated at room temperature for 1 h. The plate was washed three times with wash buffer at 250 μL per well. For each wash, the plate was shaken for 10 s to ensure adequate cleaning. 50 μL of diluted test anti-PVRIG antibody and 50 μL of his-tagged ligand PVRL2 were added to each well, and the plate was incubated at 37° C. for 1 h. The plate was washed three times with wash buffer at 250 μL per well. The HRP-labeled anti-his-tagged secondary antibody (Genscrpit) diluted at 1:2000 was added at 100 μL per well. The plate was incubated at 37° C. for 1 h. The plate was washed three times with wash buffer at 250 μL per well. TMB was added at 100 μL/well, and the plate was incubated in the dark for 15 min. 0.16 M sulfuric acid was added at 50 μL/well. OD values at 450 nm were measured using a Thermo MμtLtiSkanFc microplate reader, and the IC₅₀ values of the anti-PVRIG antibodies blocking the binding of PVRIG to PVRL2 were calculated.
as §3

[6] = target: T5, human PVRIG expressed on cells (human, UniProt Q6DKI7 41-326); experiment: cell-based or functional assay
T5 sequence (looked up): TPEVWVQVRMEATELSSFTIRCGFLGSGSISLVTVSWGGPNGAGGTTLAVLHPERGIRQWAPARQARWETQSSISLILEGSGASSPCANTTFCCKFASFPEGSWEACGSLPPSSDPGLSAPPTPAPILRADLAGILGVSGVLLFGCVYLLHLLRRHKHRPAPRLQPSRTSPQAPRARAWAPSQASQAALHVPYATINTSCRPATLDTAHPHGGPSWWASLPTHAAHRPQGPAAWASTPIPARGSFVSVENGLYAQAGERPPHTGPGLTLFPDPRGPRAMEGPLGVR

[7] = target: T5, human PVRIG expressed on cells; experiment: cell-based or functional assay; remark: listed apart in the source
[8] = target: T5, human PVRIG expressed on cells; experiment: FACS, HEK293 cells overexpressing target
Experimental: as §4
(§5) Binding of the humanized anti-PVRIG antibodies to human or cynomolgus monkey PVRIG was detected by using a flow cytometer according to the method of Example 5.

[9] = target: T6, cynomolgus monkey PVRIG expressed on cells (cynomolgus monkey, UniProt A0A2K5WVV8 1-322); experiment: FACS, HEK293 cells overexpressing target
T6 construct: whole, on cells; also called Monkey PVRIG FACS; cells overexpressing cynomolgus monkey PVRIG
T6 sequence: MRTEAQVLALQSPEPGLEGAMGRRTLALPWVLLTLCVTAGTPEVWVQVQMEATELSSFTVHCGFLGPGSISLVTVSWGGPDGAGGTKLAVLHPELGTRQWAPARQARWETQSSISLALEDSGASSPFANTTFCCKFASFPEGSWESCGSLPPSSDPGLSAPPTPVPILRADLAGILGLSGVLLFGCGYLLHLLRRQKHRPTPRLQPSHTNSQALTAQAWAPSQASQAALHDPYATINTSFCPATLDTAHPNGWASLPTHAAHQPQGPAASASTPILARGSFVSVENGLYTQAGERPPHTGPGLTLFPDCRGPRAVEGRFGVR
Experimental: as §4, §5

[10] = target: T7, his-tagged human PVRIG (h-PVRIG-his) recombinant protein (human, UniProt Q6DKI7 41-171, limits assumed); experiment: BLI (Fortebio), antibody on Protein A sensor, 1:1 fit
T7 construct: bought from Acrobiosystems; also called Human PVRIG-his; human PVRIG recombinant protein; not shown: his tag
T7 sequence (looked up): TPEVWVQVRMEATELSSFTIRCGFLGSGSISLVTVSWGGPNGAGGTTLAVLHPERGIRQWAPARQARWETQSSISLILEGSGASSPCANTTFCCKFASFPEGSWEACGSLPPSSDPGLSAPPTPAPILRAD
Experimental: A Protein A biosensor (Fortebio, #18-5010) was immersed in 200 μL of KB buffer (PBS, pH 7.4, 0.02% tween-20, 0.1% BSA) for 60 s for the wetting treatment. Then, the anti-PVRIG antibody was diluted to 10 μg/mL with the KB buffer, and the sensor was immersed in 200 μL of the solution until the reading was 1.2 nm. The sensor was immersed in the KB buffer for 100 s to elute excess antibody. The his-tagged human PVRIG was diluted in a 2-fold gradient to 64 nM-4 nM with the KB buffer. The sensor was immersed in the solution for 300 s for binding. The sensor was immersed in the KB buffer for 600 s for dissociation. The data were fitted in a dynamic 1:1 binding mode.
The affinity of the humanized anti-PVRIG antibodies for human PVRIG was detected according to the method of Example 7. All the antibodies listed in the Table have high affinity for human PVRIG.

B3: anti-PVRIG/TIGIT bispecific antibody 1708-151-1 (bispecific antibody, human IgG4 S228P, kappa)
heavy: not shown
light: DIQMTQSPSSLSASVGDRVTITCRASENIYSYLAWYQQKPGKSPKLLIYNARTLAEGVPSRFSGSGSGTDFTLTISSLQPEDFATYYCQYHSGSPLPFGGGTKVEIKRTVAAPSVFIFPPSDEQLKSGTASVVCLLNNFYPREAKVQWKVDNALQSGNSQESVTEQDSKDSTYSLSSTLTLSKADYEKHKVYACEVTHQGLSSPVTKSFNRGEC
- EC50 [3]: 0.101 nM
- EC50 [4]: 1.51 nM
- IC50 [5]: 0.96 nM

B4: anti-PVRIG/TIGIT bispecific antibody 1708-151-2 (bispecific antibody, human IgG4 S228P, kappa)
heavy: not shown
light: DIQMTQSPSSLSASVGDRVTITCRASENIYSYLAWYQQKPGKSPKLLIYNARTLAEGVPSRFSGSGSGTDFTLTISSLQPEDFATYYCQYHSGSPLPFGGGTKVEIKRTVAAPSVFIFPPSDEQLKSGTASVVCLLNNFYPREAKVQWKVDNALQSGNSQESVTEQDSKDSTYSLSSTLTLSKADYEKHKVYACEVTHQGLSSPVTKSFNRGEC
- EC50 [3]: 0.09 nM
- EC50 [4]: 1.27 nM
- IC50 [5]: 1.04 nM

Second part, led by results:

- binding result [1]: no binding
- EC50 [2]: 0.14 nM
B1: anti-PVRIG antibody 20 (antibody, human IgG4 S228P, F234A L235A, V domains shown)
VH: DVQLVESGGGSVQAGGSLRLSCVASRYTSRTDCMGWFRQAPGKEHEGVAHIDSDGIPRYVDSVKGRFTISQDHAKNTLYLQMNSLKPEDSATYYCVVGFKFDDDYCAPNDWGQGTQVTVSS
notes: no light chain

- EC50 [3]: 0.069 nM
- EC50 [4]: 1.92 nM
- IC50 [5]: 0.62 nM
B2: anti-PVRIG/TIGIT bispecific antibody 1708-151-3 (bispecific antibody, human IgG4 S228P, kappa)
heavy: not shown
light: HVQLVESGGGSVQAGGSLRLSCVASASGFTYRPYCMAWFRQAPGKEREAVAGIDIFGGTTYADSVKGRFTASRDNAGFSLFLQMNDLKPEDTAMYYCAAGDSPDGRCPPLGQGLNYWGQGTQVTVSSGGGGSGGGGSDIQMTQSPSSLSASVGDRVTITCRASENIYSYLAWYQQKPGKSPKLLIYNARTLAEGVPSRFSGSGSGTDFTLTISSLQPEDFATYYCQYHSGSPLPFGGGTKVEIKRTVAAPSVFIFPPSDEQLKSGTASVVCLLNNFYPREAKVQWKVDNALQSGNSQESVTEQDSKDSTYSLSSTLTLSKADYEKHKVYACEVTHQGLSSPVTKSFNRGEC

- PVRIG reporter gene cell activity EC50 [6]: 0.176 nM
- EC50 [8]: 3 pM
- EC50 [9]: 5 pM
- Kd [10]: 1.92 nM
- koff [10]: 0.000325 s⁻¹
- kon [10]: 169000 M⁻¹ s⁻¹
B5: humanized anti-PVRIG antibody 30H2 (antibody, human IgG4 S228P, F234A L235A, V domains shown)
VH: EVQLVESGGGLVQPGGSLRLSCAASGFTFSGDCMGWFRQAPGKGLDEGVATIDNAGRIKYADSVKGRFTISRDNAKNSLYLQMNSLRAEDTAVYYCAAGWTFGGQCSPADWGQGTQVTVSS
- NK92 killing of K562, killing activity (%), 4 nM antibody [7]: 7.7%
- NK92 killing of K562, killing activity (%), 20 nM antibody [7]: 14.5%
- NK92 killing of K562, killing activity (%), 100 nM antibody [7]: 17.7%
